Test results taken from publication doi:10.1101/2020.08.10.242008.

Molecular target: T1, Full-length wild-type rat TRPV2 (transient receptor potential vanilloid 2) (rat), Q9WUD2
T1 chain: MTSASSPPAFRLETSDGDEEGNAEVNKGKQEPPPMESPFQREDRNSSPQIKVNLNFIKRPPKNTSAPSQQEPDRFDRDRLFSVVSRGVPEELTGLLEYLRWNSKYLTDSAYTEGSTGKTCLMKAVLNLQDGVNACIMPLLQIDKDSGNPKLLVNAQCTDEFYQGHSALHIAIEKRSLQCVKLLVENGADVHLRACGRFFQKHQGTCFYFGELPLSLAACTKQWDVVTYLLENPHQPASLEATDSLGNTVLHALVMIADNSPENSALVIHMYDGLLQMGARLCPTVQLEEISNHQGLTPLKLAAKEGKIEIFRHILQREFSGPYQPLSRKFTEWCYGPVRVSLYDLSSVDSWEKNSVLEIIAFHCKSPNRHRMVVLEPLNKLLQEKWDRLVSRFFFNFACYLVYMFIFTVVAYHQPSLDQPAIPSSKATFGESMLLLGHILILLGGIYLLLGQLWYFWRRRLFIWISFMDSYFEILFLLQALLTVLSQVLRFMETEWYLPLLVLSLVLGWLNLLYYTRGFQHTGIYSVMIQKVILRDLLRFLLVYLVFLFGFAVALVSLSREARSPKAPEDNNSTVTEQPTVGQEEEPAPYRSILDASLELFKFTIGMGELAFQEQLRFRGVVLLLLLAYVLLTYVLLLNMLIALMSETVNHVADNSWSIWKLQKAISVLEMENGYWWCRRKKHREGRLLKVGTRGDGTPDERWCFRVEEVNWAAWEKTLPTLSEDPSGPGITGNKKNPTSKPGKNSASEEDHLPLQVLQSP
Experiment: cryo-EM structure
Conditions: remark: other sources report otherwise

stoichiometry N: 4
B1: Full-length wild-type rat TRPV2 (transient receptor potential vanilloid 2), Q9WUD2 1-761 (natural protein)
chain: MTSASSPPAFRLETSDGDEEGNAEVNKGKQEPPPMESPFQREDRNSSPQIKVNLNFIKRPPKNTSAPSQQEPDRFDRDRLFSVVSRGVPEELTGLLEYLRWNSKYLTDSAYTEGSTGKTCLMKAVLNLQDGVNACIMPLLQIDKDSGNPKLLVNAQCTDEFYQGHSALHIAIEKRSLQCVKLLVENGADVHLRACGRFFQKHQGTCFYFGELPLSLAACTKQWDVVTYLLENPHQPASLEATDSLGNTVLHALVMIADNSPENSALVIHMYDGLLQMGARLCPTVQLEEISNHQGLTPLKLAAKEGKIEIFRHILQREFSGPYQPLSRKFTEWCYGPVRVSLYDLSSVDSWEKNSVLEIIAFHCKSPNRHRMVVLEPLNKLLQEKWDRLVSRFFFNFACYLVYMFIFTVVAYHQPSLDQPAIPSSKATFGESMLLLGHILILLGGIYLLLGQLWYFWRRRLFIWISFMDSYFEILFLLQALLTVLSQVLRFMETEWYLPLLVLSLVLGWLNLLYYTRGFQHTGIYSVMIQKVILRDLLRFLLVYLVFLFGFAVALVSLSREARSPKAPEDNNSTVTEQPTVGQEEEPAPYRSILDASLELFKFTIGMGELAFQEQLRFRGVVLLLLLAYVLLTYVLLLNMLIALMSETVNHVADNSWSIWKLQKAISVLEMENGYWWCRRKKHREGRLLKVGTRGDGTPDERWCFRVEEVNWAAWEKTLPTLSEDPSGPGITGNKKNPTSKPGKNSASEEDHLPLQVLQSP
